Results published in the RNAGym collection of RNA variant scans (doi:10.1073/pnas.2313332121).
Fewer inactive variants are shown than the library holds.

B1: TPR 5TU (parent)
chain: GGAUCUUCUCGAUCUAACAAAAAAGACAAAUCUGCCACAAAGCUUGAGAGCAUCUUCGGAUGCAGAGGCGGCAGCCUUCGGUGGCGCGAUAGCGCCAACGUUCUCAACUAUGACACGCAAAACGCGUGCUCCGUUGAAUGGAGUUUAUCAUG

Variants of: B1
Test: polymerase ribozyme fitness, log enrichment relative to wild type (log ratio); higher = more active; in vitro selection for triplet polymerase activity
Outline: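 Input and output libraries were sequenced on Illumina after a single in vitro selection round, run in triplicate on PCR-built, transcribed mutant libraries of each subunit of a heterodimeric triplet polymerase ribozyme. Selection annealed libraries to a biotinylated primer, the partner subunit and triplets, incubated them frozen at −7 °C, then gel-excised extended constructs for streptavidin-bead capture and RT-PCR. Genotypes with ≥10 input reads and ≥1 read per output were kept. Fitness is the logarithm, taken in base 2, of genotype enrichment divided by wild-type enrichment, using inverse-variance-weighted replicate averages.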

Question: Which “polymerase ribozyme fitness (log ratio)” value does the source give for U9A U13G C32G C51G G70U U127G here?
Answer: ≤ -4.2

Question: With C54G U82G as the variant, how does the “polymerase ribozyme fitness (log ratio)” value read?
Answer: -0.687

Question: For U56A G92C U139A G140U, which “polymerase ribozyme fitness (log ratio)” value is on record?
Answer: -3.76

Question: For A52G U53A A89C C93U, which “polymerase ribozyme fitness (log ratio)” value is on record?
Answer: -2.02

Question: For A22C C38U G58U A60C C85A C87U G133A G140U, which “polymerase ribozyme fitness (log ratio)” value is on record?
Answer: ≤ -4.2

Question: For C38U U56A G70C A91U U104A A107C U145A, which “polymerase ribozyme fitness (log ratio)” value is on record?
Answer: ≤ -4.2

Question: Which “polymerase ribozyme fitness (log ratio)” value does the source give for G11A A17G C43U G94U A122G G141U here?
Answer: ≤ -4.2

Question: Which “polymerase ribozyme fitness (log ratio)” value does the source give for A22U A30G G46C G50C A52C U55G G83A G94A here?
Answer: ≤ -4.2

Question: Which “polymerase ribozyme fitness (log ratio)” value does the source give for C8U G42C C51U U61G C95A C125G U127G A137U C149G here?
Answer: ≤ -4.2

Question: With C18G C38A C69G C87U G143U U145A as the variant, how does the “polymerase ribozyme fitness (log ratio)” value read?
Answer: -3.47

Question: With A24C A37G G48C C63U U78G G88C U144G as the variant, how does the “polymerase ribozyme fitness (log ratio)” value read?
Answer: ≤ -4.2

Question: With A52U C93U A119U G124U as the variant, how does the “polymerase ribozyme fitness (log ratio)” value read?
Answer: -3.24

Question: For C85U C95G C108U, which “polymerase ribozyme fitness (log ratio)” value is on record?
Answer: ≤ -4.2

Question: With A20U C63A G84U C87U as the variant, how does the “polymerase ribozyme fitness (log ratio)” value read?
Answer: -3.3

Question: With G42C U44G A106G as the variant, how does the “polymerase ribozyme fitness (log ratio)” value read?
Answer: ≤ -4.2

Question: For A37C C43U G84A C114A U130G U151G, which “polymerase ribozyme fitness (log ratio)” value is on record?
Answer: ≤ -4.2

Question: Which “polymerase ribozyme fitness (log ratio)” value does the source give for A66C C76U U82G C85G C125G here?
Answer: ≤ -4.2

Question: For C79G G128U, which “polymerase ribozyme fitness (log ratio)” value is on record?
Answer: ≤ -4.2

Question: With A39U U45C C93U as the variant, how does the “polymerase ribozyme fitness (log ratio)” value read?
Answer: ≤ -4.2

Question: Which “polymerase ribozyme fitness (log ratio)” value does the source give for A47C C85A C118U here?
Answer: -0.946

Question: With A40C U55A G59C C69U G84A as the variant, how does the “polymerase ribozyme fitness (log ratio)” value read?
Answer: -2.39

Question: For U61A C85G, which “polymerase ribozyme fitness (log ratio)” value is on record?
Answer: ≤ -4.2

Question: With U61A C85A as the variant, how does the “polymerase ribozyme fitness (log ratio)” value read?
Answer: -3.12

Question: With A16U U33C C38U G140U as the variant, how does the “polymerase ribozyme fitness (log ratio)” value read?
Answer: ≤ -4.2

Question: With A52G C85U G86U C118G U144C C149G as the variant, how does the “polymerase ribozyme fitness (log ratio)” value read?
Answer: ≤ -4.2

Question: For C10G U13C C85G U109G A115U G140U, which “polymerase ribozyme fitness (log ratio)” value is on record?
Answer: ≤ -4.2

Question: For C32U A49C, which “polymerase ribozyme fitness (log ratio)” value is on record?
Answer: -4.13

Question: With A12U A41C G83C C118G G133U as the variant, how does the “polymerase ribozyme fitness (log ratio)” value read?
Answer: ≤ -4.2

Question: For A3G A41U A47G U101G G136U, which “polymerase ribozyme fitness (log ratio)” value is on record?
Answer: ≤ -4.2

Question: For U31G G65A, which “polymerase ribozyme fitness (log ratio)” value is on record?
Answer: -1.83

Question: With U9G U56A as the variant, how does the “polymerase ribozyme fitness (log ratio)” value read?
Answer: -4.07

Question: Which “polymerase ribozyme fitness (log ratio)” value does the source give for G42C C43G U56A G59U C85U C125A U127C here?
Answer: ≤ -4.2

Question: For C95U A142G, which “polymerase ribozyme fitness (log ratio)” value is on record?
Answer: -1.66

Question: For A24U C96U, which “polymerase ribozyme fitness (log ratio)” value is on record?
Answer: 0.0587

Question: Which “polymerase ribozyme fitness (log ratio)” value does the source give for G59C A97U here?
Answer: -0.431

Question: Which “polymerase ribozyme fitness (log ratio)” value does the source give for U55A A73U C75U C93U G100A U139A U144G here?
Answer: ≤ -4.2

Question: Which “polymerase ribozyme fitness (log ratio)” value does the source give for G88U C96U G124C G136U here?
Answer: ≤ -4.2

Question: For A12U U82G, which “polymerase ribozyme fitness (log ratio)” value is on record?
Answer: -1.49

Question: Which “polymerase ribozyme fitness (log ratio)” value does the source give for C72U G86A C95A A97G A98U U104A A122U here?
Answer: ≤ -4.2

Question: Which “polymerase ribozyme fitness (log ratio)” value does the source give for A3C U9A A30U G48A U53A C54U G67U C93G G126A U135G here?
Answer: ≤ -4.2

Question: For C85U U101A, which “polymerase ribozyme fitness (log ratio)” value is on record?
Answer: -0.791

Question: For A21U A91G, which “polymerase ribozyme fitness (log ratio)” value is on record?
Answer: -2.85

Question: With A20U A23G G88A C99G C149G as the variant, how does the “polymerase ribozyme fitness (log ratio)” value read?
Answer: ≤ -4.2

Question: For U31A G58C U61A C87G C96U C99U C114G A150G, which “polymerase ribozyme fitness (log ratio)” value is on record?
Answer: ≤ -4.2

Question: For U61G A66C A150G, which “polymerase ribozyme fitness (log ratio)” value is on record?
Answer: ≤ -4.2

Question: Which “polymerase ribozyme fitness (log ratio)” value does the source give for C27A C43A A52U U55A U56A G92U here?
Answer: ≤ -4.2

Question: With U33G U53A G58A as the variant, how does the “polymerase ribozyme fitness (log ratio)” value read?
Answer: -3.78

Question: For G84U G88A A120C, which “polymerase ribozyme fitness (log ratio)” value is on record?
Answer: ≤ -4.2

Question: With G50A U56G C85U A115C U144G as the variant, how does the “polymerase ribozyme fitness (log ratio)” value read?
Answer: -2.74

Question: Which “polymerase ribozyme fitness (log ratio)” value does the source give for A21U A119U G124U here?
Answer: -0.526

Question: For C14G C95G C96G, which “polymerase ribozyme fitness (log ratio)” value is on record?
Answer: -4.07

Question: Which “polymerase ribozyme fitness (log ratio)” value does the source give for A66G C96A A98G G136U here?
Answer: ≤ -4.2

Question: With A23U U44A U45A A66U C95U A120G as the variant, how does the “polymerase ribozyme fitness (log ratio)” value read?
Answer: ≤ -4.2

Question: For G140C, which “polymerase ribozyme fitness (log ratio)” value is on record?
Answer: -3.16

Question: For U7C U56A A91U A106U C132U, which “polymerase ribozyme fitness (log ratio)” value is on record?
Answer: -3.92

Question: With U33G G42C G88U G124U C125G as the variant, how does the “polymerase ribozyme fitness (log ratio)” value read?
Answer: -3.86

Question: With A24U G80U C123G U146G as the variant, how does the “polymerase ribozyme fitness (log ratio)” value read?
Answer: -1.39

Question: For C32G A47C U55A U56G G67U G88A G100C C105U A137U G141U, which “polymerase ribozyme fitness (log ratio)” value is on record?
Answer: ≤ -4.2

Question: Which “polymerase ribozyme fitness (log ratio)” value does the source give for C69U C76G here?
Answer: ≤ -4.2

Question: For A28C C57U G59A U78G G86A A115U, which “polymerase ribozyme fitness (log ratio)” value is on record?
Answer: ≤ -4.2

Question: For A19C C54U G67U C85A, which “polymerase ribozyme fitness (log ratio)” value is on record?
Answer: ≤ -4.2

Question: Which “polymerase ribozyme fitness (log ratio)” value does the source give for G92A G141C here?
Answer: -3.71

Question: Which “polymerase ribozyme fitness (log ratio)” value does the source give for C8A A19G C57G G88A U146G here?
Answer: ≤ -4.2

Question: With U7A U33G C79A C116U U144C as the variant, how does the “polymerase ribozyme fitness (log ratio)” value read?
Answer: ≤ -4.2

Question: For C85U G136U, which “polymerase ribozyme fitness (log ratio)” value is on record?
Answer: -1.83

Question: For C8A G92C, which “polymerase ribozyme fitness (log ratio)” value is on record?
Answer: -3.68

Question: Which “polymerase ribozyme fitness (log ratio)” value does the source give for U53C G86A C95U here?
Answer: -1.78

Question: With A23G C27U A29C C32A C36G C85U C95A U127G as the variant, how does the “polymerase ribozyme fitness (log ratio)” value read?
Answer: -4.14

Question: Which “polymerase ribozyme fitness (log ratio)” value does the source give for U45A G117U here?
Answer: -3.08

Question: With A39U G68A A73G C87G C132A G141C U144C as the variant, how does the “polymerase ribozyme fitness (log ratio)” value read?
Answer: ≤ -4.2

Question: With A16G A39C as the variant, how does the “polymerase ribozyme fitness (log ratio)” value read?
Answer: -2.62

Question: Which “polymerase ribozyme fitness (log ratio)” value does the source give for G50C G83U C93A G100U G124C G128U C132G U145G here?
Answer: ≤ -4.2

Question: With G25C A64C C96U as the variant, how does the “polymerase ribozyme fitness (log ratio)” value read?
Answer: ≤ -4.2

Question: With A39C A52G G70A C99G G100A U144A as the variant, how does the “polymerase ribozyme fitness (log ratio)” value read?
Answer: ≤ -4.2

Question: With A49C G141C as the variant, how does the “polymerase ribozyme fitness (log ratio)” value read?
Answer: -4.14

Question: For A66U C75G U82G A106C C116U, which “polymerase ribozyme fitness (log ratio)” value is on record?
Answer: ≤ -4.2

Question: Which “polymerase ribozyme fitness (log ratio)” value does the source give for G86C here?
Answer: -2.55

Question: With U78C U146C as the variant, how does the “polymerase ribozyme fitness (log ratio)” value read?
Answer: 0.315

Question: With A39U A52G G74U U90A A122G C125G C129U as the variant, how does the “polymerase ribozyme fitness (log ratio)” value read?
Answer: ≤ -4.2

Question: Which “polymerase ribozyme fitness (log ratio)” value does the source give for A24C C54G C76U U78A C105A A147C here?
Answer: ≤ -4.2

Question: With C93A U101G U139C G141C as the variant, how does the “polymerase ribozyme fitness (log ratio)” value read?
Answer: -3.88

Question: With U6G U55G G92A as the variant, how does the “polymerase ribozyme fitness (log ratio)” value read?
Answer: -3.71

Question: For A41C C57G G136U, which “polymerase ribozyme fitness (log ratio)” value is on record?
Answer: -3.64

Question: Which “polymerase ribozyme fitness (log ratio)” value does the source give for U9C C10G C36G U55A G84A G126A here?
Answer: ≤ -4.2
